Results published in paper PMC12485048.

Biological target: Ca2+/calmodulin-dependent protein kinase II (CaMKII) (mouse (endogenous in striatum)) (UniProt P28652)
Assay: co-IP; endogenous proteins in mouse striatum lysate (20 mM Tris-HCl pH 7.4, 50 mM NaCl, 0.5% NP-40, 10 mM HEPES, 0.5 mM EDTA); 2 μg primary antibody on Protein A/G or Protein G magnetic beads, lysate at 4 °C overnight; western blot; for CaMKII–PPP1CC, WT and Sh3rf2 KO striatum compared

Sequence of UniProt P28652 (P28652 whole entry): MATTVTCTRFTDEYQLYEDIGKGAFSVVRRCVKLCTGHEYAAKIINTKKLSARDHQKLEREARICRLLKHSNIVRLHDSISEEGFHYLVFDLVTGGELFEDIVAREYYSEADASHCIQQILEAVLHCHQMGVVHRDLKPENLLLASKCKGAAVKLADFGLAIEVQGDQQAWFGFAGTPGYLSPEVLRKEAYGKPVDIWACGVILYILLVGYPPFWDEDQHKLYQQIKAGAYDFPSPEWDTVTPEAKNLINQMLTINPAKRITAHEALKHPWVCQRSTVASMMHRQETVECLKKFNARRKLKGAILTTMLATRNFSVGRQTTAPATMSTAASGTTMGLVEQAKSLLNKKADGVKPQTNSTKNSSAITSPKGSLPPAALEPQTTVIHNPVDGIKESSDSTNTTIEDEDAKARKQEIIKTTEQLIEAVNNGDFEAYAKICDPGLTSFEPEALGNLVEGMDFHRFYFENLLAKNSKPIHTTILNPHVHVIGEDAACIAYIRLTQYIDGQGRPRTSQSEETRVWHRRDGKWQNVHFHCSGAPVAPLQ

PP1 catalytic subunit gamma (PPP1CC) (from UniProt P63087 1-323) (enzyme)
reduction of CaMKII–PPP1CC co-precipitate in Sh3rf2 KO against WT striatum: 80%
